Reference: patent US12534534 (F STAR BETA, dated 2026)

How the values were obtained:
hCD137-mFc-Avi [1] = target: T1, hCD137-mFc-Avi (human, UniProt Q07011 24-186); assay: ELISA, hCD137-mFc-Avi coated, 100 nM antibody, competitor CD137L-His; normalised to G1/11D4 = 0 and G1/MOR7480.1 = 100; mean of n=2
T1 construct: dimer; also called human CD137-mFc-Avi; human CD137-mFc
Procedure: The following day, plates were washed with PBST (PBS+0.05% Tween20™) and blocked with PBS+1% BSA (Sigma, A3059-500G) for 1 hour at room temperature with agitation. After blocking, the plates were washed again with PBST. A 100 nM dilution of each test antibody was prepared in PBS+1% BSA and added to the CD137-coated plates and incubated for 1 hour at room temperature with agitation. […] The plates were then washed with PBST and then incubated with anti-his secondary antibody (R&D Systems, MAB050H) at a 1 in 1000 dilution in PBS for 1 hour at room temperature with agitation. The plates were then washed with PBST and incubated with TMB detection reagent (Thermo Fisher Scientific, 002023) until the positive control wells turned blue and then the reaction was stopped with the addition of 2N H_2SO_4. Plates were read at 450 nm using the plate reader with Gen5 Software, BioTek. Absorbance values of 630 nm were subtracted from those of 450 nm (Correction). The subtracted absorbance values were plotted vs the log concentration of antibody and the resulting curves were fitted using the log (inhibitor) vs response equation in GraphPad Prism.

hCD137-mFc-Avi [2] = target: T1, hCD137-mFc-Avi; assay: cell-based, 100 nM hCD137-mFc-Avi with 200 nM antibody, competitor human CD137L on DO11.10 cells, GMFI normalised to G1/11D4 = 0 and G1/MOR7480.1 = 100; mean of n=2
Procedure: The cells were washed once in PBS and 100 μl/well of secondary antibody (anti-mouse Fc-488 antibody, Jackson Immuno Research, 115-546-008) diluted 1:1000 in PBS containing 2% BSA was then added and incubated for 30 mins at 4° C. in the dark. The cells were washed once with PBS and resuspended in 100 μl of PBS containing DAPI (Biotium, 40043) at 1 μg/ml. The cells were analysed using a Canto II flow cytometer (BD Bioscience). Dead cells were excluded and the fluorescence in the FITC channel (488 nm/530/30) was measured. […] The data was analysed using a one-way ANOVA test and Tukey's multiple comparisons test using GraphPad Prism.

[3] = target: human CD137 on DO11.10-hCD137 cells (human, UniProt Q07011 24-255); assay: cell-based or functional assay
hCD137-mFc-Avi [4] = target: T1, hCD137-mFc-Avi; assay: SPR, antigens immobilised on CM5 chip, mAb^2 at 1 µM and 1 nM, binding level at end of association
Procedure: CD137 belongs to the tumour necrosis factor receptor superfamily (TNFRSF) of cytokine receptors (Moran et al., 2013). To analyse the specificity of the anti-CD137 Fab binding site of the five mAb² molecules, binding of the mAb² to human CD137 and five closely-related human TNFRSF members (TNFRSF1A, TNFRSF1B, GITR, NGFR and CD40) was tested using SPR.
(§1) Flow cell 1 was run as a blank immobilisation. The five FS20-22-49AA/FS30 mAb² were diluted to 1 μM and 1 nM in 1×HBS-EP buffer (GE Healthcare, product code BR100188), allowed to flow over the chip for 3 min and then allowed to dissociate for 4 minutes. A 30-second injection of 10 mM glycine pH 1.5 was used for regeneration. […] Binding levels were determined at the end of the association phase and compared.

NGFR-Fc = target: T2, NGFR-Fc (human, UniProt P08138 29-250); assay: SPR, antigen immobilised on CM5 chip
T2 construct: bought; also called NGFR (R&D Systems, 367-NR-050/CF); not shown: Fc part of the bought fusion
T2 sequence (looked up): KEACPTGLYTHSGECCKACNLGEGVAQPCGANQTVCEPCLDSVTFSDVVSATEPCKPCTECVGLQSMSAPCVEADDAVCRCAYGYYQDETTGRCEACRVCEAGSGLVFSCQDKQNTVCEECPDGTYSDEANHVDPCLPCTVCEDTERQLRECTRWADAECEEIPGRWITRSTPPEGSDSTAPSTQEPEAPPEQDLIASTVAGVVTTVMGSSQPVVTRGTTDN
Procedure: as §1
(§2) Specificity was tested against the same five human TNFRSF members closely-related to CD137 (TNFRSF1A, TNFRSF1B, GITR, NGFR and CD40) plus an additional closely-related TNFRSF member, human DR6 (DR6-Fc; R&D Systems, 144-DR-100), using SPR as described in Example 3.1.

TNFRSF1A-Fc = target: T3, TNFRSF1A-Fc (human, UniProt P19438 30-211, limits assumed); assay: SPR, antigen immobilised on CM5 chip
T3 construct: bought; also called TNFRSF1A (R&D Systems, 372-RI-050/CF); not shown: Fc part of the bought fusion
T3 sequence (looked up): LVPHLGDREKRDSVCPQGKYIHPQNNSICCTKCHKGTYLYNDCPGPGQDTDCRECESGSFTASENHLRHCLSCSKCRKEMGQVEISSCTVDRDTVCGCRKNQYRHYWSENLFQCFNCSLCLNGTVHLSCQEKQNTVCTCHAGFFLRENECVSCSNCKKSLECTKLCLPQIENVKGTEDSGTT
Procedure: as §1, §2

CD40-mFc = target: T4, CD40-mFc (human, UniProt P25942 21-193); assay: SPR, antigen immobilised on CM5 chip
T4 construct: in-house produced; not shown: mFc part
Procedure: as §1, §2

TNFRSF1B-Fc = target: T5, TNFRSF1B-Fc (human, UniProt P20333 23-257); assay: SPR, antigen immobilised on CM5 chip
T5 construct: bought; also called TNFRSF1B (R&D Systems, 726-R2-050); not shown: Fc part of the bought fusion
T5 sequence (looked up): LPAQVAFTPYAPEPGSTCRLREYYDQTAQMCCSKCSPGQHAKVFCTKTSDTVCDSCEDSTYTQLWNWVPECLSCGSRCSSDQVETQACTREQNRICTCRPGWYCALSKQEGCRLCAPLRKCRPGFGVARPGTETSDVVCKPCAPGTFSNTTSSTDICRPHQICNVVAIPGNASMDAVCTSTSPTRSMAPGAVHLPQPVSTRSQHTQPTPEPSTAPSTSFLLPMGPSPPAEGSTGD
Procedure: as §1, §2

GITR-hFc-Avi = target: T6, GITR-hFc-Avi (human, UniProt Q9Y5U5 26-161); assay: SPR, antigen immobilised on CM5 chip
T6 construct: in-house produced; not shown: hFc and Avi part
T6 sequence: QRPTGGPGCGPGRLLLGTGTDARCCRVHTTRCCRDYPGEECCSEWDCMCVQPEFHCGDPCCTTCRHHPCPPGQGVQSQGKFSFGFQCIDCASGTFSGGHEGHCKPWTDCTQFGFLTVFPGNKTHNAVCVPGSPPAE
Procedure: as §1, §2

[5] = target: human CD137 on primary human CD8+ T cells (human, UniProt Q07011 24-255); assay: cell-based or functional assay

B1: FS20-22-49AA/4420 (bispecific antibody, human IgG1, kappa, L234A L235A, V domains shown)
VH: EVKLDETGGGLVQPGRPMKLSCVASGFTFSDYWMNWVRQSPEKGLEWVAQIRNKPYNYETYYSDSVKGRFTISRDDSKSSVYLQMNNLRVEDMGIYYCTGSYYGMDYWGQGTSVTVSS
VL: DVVMTQTPLSLPVSLGDQASISCRSSQSLVHSNGNTYLRWYLQKPGQSPKVLIYKVSNRFSGVPDRFSGSGSGTDFTLKISRVEAEDLGVYFCSQSTHVPWTFGGGTKLEIKR
notes: anti-OX40 Fcab FS20-22-49AA with the Fab of anti-FITC antibody 4420; IgG1 LALA; also called negative control mAb^2
% CD137 ligand blocking activity (hCD137-mFc-Avi [1]): -0.3% | % CD137 ligand blocking activity (hCD137-mFc-Avi [2]): 2%

B2: FS20-22-49AA/FS30-5 variant, Methionine (100D) to I (bispecific antibody, V domains shown)
VH: EVQLLESGGGLVQPGGSLRLNCAASGFTFSSYAMSWVRQAPGKGLEWVSAISGSGGSTYYADSVKGRFTISRDNSKNTLYLQMNSLRAEDTAVYYCARSYDKYWGSSIYSGMDYWGQGTLVTVSS
VL: EIVLTQSPGTLSLSPGERATLSCRASQSVSSSYLAWYQQKPGQAPRLLIYGASSRATGIPDRFSGSGSGTDFTLTISRLEPEDFAVYYCQQYYSYYPVTFGQGTKVEIKR
DO11.10-hCD137 T cell activation assay EC50 (nM), crosslinked [3]: 4.4 nM

B3: FS20-22-49AA/FS30-16 (bispecific antibody, human IgG1, kappa, L234A L235A, V domains shown)
VH: EVQLLESGGGLVQPGGSLRLSCAASGFTFSNYAMHWVRQAPGKGLEWVSTIDPTDGATNYADSVKGRFTISRDNSKNTLYLQMNSLRAEDTAVYYCARSKYYTYMQYVALDYWGQGTLVTVSS
VL: EIVLTQSPGTLSLSPGERATLSCRASQSVSSSYLAWYQQKPGQAPRLLIYGASSRATGIPDRFSGSGSGTDFTLTISRLEPEDFAVYYCQQGSRFFPITFGQGTKVEIKR
notes: also called FS30-16 in mAb^2 format
fold specificity for CD137 over TNFRSF1A, TNFRSF1B, GITR, NGFR and CD40 (hCD137-mFc-Avi [4]): ~1000 fold

B4: FS20-22-49AA/FS30-5 (bispecific antibody, human IgG1, kappa, L234A L235A, V domains shown)
VH: EVQLLESGGGLVQPGGSLRLNCAASGFTFSSYAMSWVRQAPGKGLEWVSAISGSGGSTYYADSVKGRFTISRDNSKNTLYLQMNSLRAEDTAVYYCARSYDKYWGSSMYSGMDYWGQGTLVTVSS
VL: EIVLTQSPGTLSLSPGERATLSCRASQSVSSSYLAWYQQKPGQAPRLLIYGASSRATGIPDRFSGSGSGTDFTLTISRLEPEDFAVYYCQQYYSYYPVTFGQGTKVEIKR
notes: also called FS30-5 in mAb^2 format
DO11.10-hCD137 T cell activation assay EC50 (nM), crosslinked [3]: 4.8 nM | fold specificity for CD137 over TNFRSF1A, TNFRSF1B, GITR, NGFR and CD40 (hCD137-mFc-Avi [4]): ~1000 fold

B5: FS20-22-49AA/FS30-35 (bispecific antibody, human IgG1, kappa, L234A L235A, V domains shown)
VH: EVQLLESGGGLVQPGGSLRLSCAASGFTFSAYNIHWVRQAPGKGLEWVSDISPYGGATNYADSVKGRFTISRDNSKNTLYLQMNSLRAEDTAVYYCARNLYELSAYSYGMDYWGQGTLVTVSS
VL: EIVLTQSPGTLSLSPGERATLSCRASQSVSSSYLAWYQQKPGQAPRLLIYGASSRATGIPDRFSGSGSGTDFTLTISRLEPEDFAVYYCQQYYYSSPITFGQGTKVEIKR
notes: also called FS30-35 in mAb^2 format
DO11.10-hCD137 T cell activation assay EC50 (nM), crosslinked [3]: 5.5 nM | fold specificity for CD137 over TNFRSF1A, TNFRSF1B, GITR, NGFR and CD40 (hCD137-mFc-Avi [4]): ~1000 fold

B6: FS20-22-49AA/FS30-35 variant, Methionine (100F) to H (bispecific antibody, V domains shown)
VH: EVQLLESGGGLVQPGGSLRLSCAASGFTFSAYNIHWVRQAPGKGLEWVSDISPYGGATNYADSVKGRFTISRDNSKNTLYLQMNSLRAEDTAVYYCARNLYELSAYSYGHDYWGQGTLVTVSS
VL: EIVLTQSPGTLSLSPGERATLSCRASQSVSSSYLAWYQQKPGQAPRLLIYGASSRATGIPDRFSGSGSGTDFTLTISRLEPEDFAVYYCQQYYYSSPITFGQGTKVEIKR
DO11.10-hCD137 T cell activation assay EC50 (nM), crosslinked [3]: 9.5 nM

B7: FS20-22-49AA/FS30-10 (bispecific antibody, human IgG1, kappa, L234A L235A, V domains shown)
VH: EVQLLESGGGLVQPGGSLRLSCAASGFTFSSYDMSWVRQAPGKGLEWVSDIDPTGSKTDYADSVKGRFTISRDNSKNTLYLQMNSLRAEDTAVYYCARDLMVYGFDYWGQGTLVTVSS
VL: EIVLTQSPGTLSLSPGERATLSCRASQSVSSSYLAWYQQKPGQAPRLLIYGASSRATGIPDRFSGSGSGTDFTLTISRLEPEDFAVYYCQQSYSYPVTFGQGTKVEIKR
notes: also called FS30-10 in mAb^2 format
DO11.10-hCD137 T cell activation assay EC50 (nM), crosslinked [3]: 10.2 nM | fold specificity for CD137 over TNFRSF1A, TNFRSF1B, GITR, NGFR and CD40 (hCD137-mFc-Avi [4]): ~1000 fold

B8: FS20-22-49AA/FS30-15 (bispecific antibody, human IgG1, kappa, L234A L235A, V domains shown)
VH: EVQLLESGGGLVQPGGSLRLSCAASGFTFSGSGMSWVRQAPGKGLEWVSIIYSTNGDTDYADSVKGRFTISRDNSKNTLYLQMNSLRAEDTAVYYCARDFYDIANYYAFDYWGQGTLVTVSS
VL: EIVLTQSPGTLSLSPGERATLSCRASQSVSSSYLAWYQQKPGQAPRLLIYGASSRATGIPDRFSGSGSGTDFTLTISRLEPEDFAVYYCQQAYYDPITFGQGTKVEIKR
notes: also called FS30-15 in mAb^2 format
binding result (NGFR-Fc): binds | binding result (TNFRSF1A-Fc): binds | binding result (CD40-mFc): binds | binding result (TNFRSF1B-Fc): binds | binding result (GITR-hFc-Avi): binds

B9: G1AA/FS30-6 (antibody, human IgG1, kappa, L234A L235A, V domains shown)
VH: EVQLLESGGGLVQPGGSLRLSCAASGFTVSYYSISWVRQAPGKGLEWVSDIYSYYGYTDYADSVKGRFTISRDNSKNTLYLQMNSLRAEDTAVYYCARVSYGGQAFDYWGQGTLVTVSS
VL: EIVLTQSPGTLSLSPGERATLSCRASQSVSSSYLAWYQQKPGQAPRLLIYGASSRATGIPDRFSGSGSGTDFTLTISRLEPEDFAVYYCQQYDDYPVTFGQGTKVEIKR
Activity of non-crosslinked mAbs at 100 nM (hIL-2 pg/ml) [5]: 532 pg/mL | EC50 (nM), hIL-2 release, primary human CD8+ T cell activation assay, crosslinked mAb [5]: 1 nM | Emax (hIL-2 pg/ml), crosslinked mAb [5]: 1510 pg/mL
